Test results as given in paper PMC10465942, “N-acetylmuramic acid recognition by MurK kinase from the MurNAc auxotrophic oral pathogen Tannerella forsythia” (The Journal of Biological Chemistry, 2023).

Key:
[1] = target: K1058, paralogous MurNAc kinase of Tannerella forsythia (Tannerella forsythia); experiment: SEC; SD200 16/60 column, 4 °C; MurK in 200 mM NaCl, 50 mM MES, pH 6; K1058 in 750 mM NaCl, 25 mM Tris-HCl, pH 8.5; apparent mass about 60 kDa against 32.4 and 32.3 kDa for the monomers
[2] = target: Tannerella forsythia ATP-dependent murein sugar kinase (MurK) (Tannerella forsythia); experiment: as above

stoichiometry N [1] | stoichiometry N [2] | Substance
2 |  | K1058, paralogous MurNAc kinase of Tannerella forsythia (enzyme)
 | 2 | Tannerella forsythia ATP-dependent murein sugar kinase (MurK) (enzyme)
